In patent publication US20240166765A1 (ICONIC THERAPEUTICS, published 2024):
Read-outs that look alike come from different tables or passages of the source.

B1: anti-TF antibody 25G9 (antibody, human IgG1, kappa, V domains shown)
VH: QVQLVQSGAEVKKPGASVKVSCKASGYTFRSYGISWVRQAPGQGLEWMGWVAPYSGNTNYAQKLQGRVTMTTDTSTSTAYMELRSLRSDDTAVYYCARDAGTYSPYGYGMDVWGQGTTVTVSS
VL: DIQMTQSPSTLSASVGDRVTITCQASQSIDSWLAWYQQKPGKAPKLLIYSASYLESGVPSRFSGSGSGTEFTLTISSLQPDDFATYYCQRFQSLPPFTFGGGTKVEIKR
notes: Human IgG1
B2: 25A (antibody, human IgG1, V domains shown)
VH: QVQLVQSGAEVKKPGASVKVSCKASGYTFDVYGISWVRQAPGQGLEWMGWIAPYNGNTNYAQKLQGRVTMTTDTSTSTAYMELRSLRSDDTAVYYCARDAGTYSPFGYGMDVWGQGTTVTVSS
VL: DIQMTQSPSTLSASVGDRVTITCRASQSISSWLAWYQQKPGKAPKLLIYKASSLESGVPSRFSGSGSGTEFTLTISSLQPDDFATYYCQQFQSLPPFTFGGGTKVEIK
notes: human IgG1
B3: 25G1 (antibody, human IgG1, kappa, V domains shown)
VH: QVQLVQSGAEVKKPGASVKVSCKASGYTFRSYGISWVRQAPGQGLEWMGWVAPYSGNTNYAQKLQGRVTMTTDTSTSTAYMELRSLRSDDTAVYYCARDAGTYSPYGYGMDVWGQGTTVTVSS
VL: DIQMTQSPSTLSASVGDRVTITCRASHSIDSWLAWYQQKPGKAPKLLIYKASYLESGVPSRFSGSGSGTEFTLTISSLQPDDFATYYCQLFQSLPPFTFGGGTKVEIKR
notes: human IgG1
B4: 25G9 (antibody, human IgG1, kappa, V domains shown)
VH: QVQLVQSGAEVKKPGASVKVSCKASGYTFRSYGISWVRQAPGQGLEWMGWVAPYSGNTNYAQKLQGRVTMTTDTSTSTAYMELRSLRSDDTAVYYCARDAGTYSPYGYGMDVWGQGTTVTVSS
VL: DIQMTQSPSTLSASVGDRVTITCQASQSIDSWLAWYQQKPGKAPKLLIYSASYLESGVPSRFSGSGSGTEFTLTISSLQPDDFATYYCQRFQSLPPFTFGGGTKVEIKR
notes: human IgG1
B5: anti-TF antibody 29D (antibody, human IgG1, V domains shown)
VH: QVQLVESGGGVVQPGRSLRLSCAASGFTFHSRGMHWVRQAPGKGLEWVAVITYDGINKYYADSVEGRFTISRDNSKNTLYLQMNSLRAEDTAVYYCARDGVYYGVYDYWGQGTLVTVSS
VL: not shown
notes: Human IgG1
B6: anti-TF antibody 43D8 (antibody, human IgG1, kappa, V domains shown)
VH: QVQLQQWGAGLLKPSETLSLTCAVYGGSLSGYYWSWIRQPPGKGLEWIGEIGASGSTRYNPSLKSRVTISVDTSKNQFSLKLSSVTAADTAVYYCARDTPYYYEGGYYYYMDVWGKGTTVTVSS
VL: EIVLTQSPGTLSLSPGERATLSCRASQSVSSSFLAWYQQKPGQAPRLLIYGAYSRATGIPDRFSGSGSGTDFTLTISRLEPEDFAVYYCQQAGVVPYTFGGGTKVEIKR
notes: Human IgG1
B7: anti-TF antibody 1G (antibody, human IgG1, V domains shown)
VH: EVQLLESGGGLVQPGGSLRLSCAASGFTFSSYAMAWVRQAPGKGLEWVSAISGSGGLTYYADSVKGRFTISRDNSKNTLYLQMNSLRAEDTAVYYCAKAPYGYYMDVWGKGTTVTVSS
VL: not shown
notes: Human IgG1
B8: 54E (antibody, human IgG1, V domains shown)
VH: QVQLVQSGAEVKKPGASVKVSCKASGYTFANYYMHWVRQAPGQGLEWMGIINPSGGITVYAQKFQGRVTMTRDTSTSTVYMELSSLRSEDTAVYYCARGGSKVAALAFDIWGQGTMVTVSS
VL: DIQMTQSPSSLSASVGDRVTITCQASQDISNSLNWYQQKPGKAPKLLIYDASNLETGVPSRFSGSRSGTDFTFTISSLQPEDIATYYCQQYNFHPLTFGGGTKVEIK
notes: Human IgG1

Tests used:
[1] = molecular target: T1, human Tissue Factor (hTF), endogenously expressed on human TF-positive cells (human, UniProt P13726 33-295); test: cell-based or functional assay
[2] = molecular target: T2, pig TF ECD-His (pig TF-His) protein (pig (Sus scrofa)); test: Biacore, antibody captured by anti-human IgG on CM5 chip, pig TF-His as analyte, 1:1 model
T2 construct: Extracellular domain with a C-terminal TG-His6 tag, used as analyte in Biacore; also called pTF
T2 chain: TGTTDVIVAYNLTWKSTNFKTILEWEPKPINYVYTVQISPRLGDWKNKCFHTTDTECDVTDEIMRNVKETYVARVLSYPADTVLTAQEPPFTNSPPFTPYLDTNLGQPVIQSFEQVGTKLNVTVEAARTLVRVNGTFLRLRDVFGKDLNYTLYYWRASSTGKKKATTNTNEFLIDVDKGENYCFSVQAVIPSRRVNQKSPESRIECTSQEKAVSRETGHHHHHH

[3] = molecular target: rTF (rat TF) on HEK293 cells (rat, UniProt P42533 29-252); test: live cell staining of transfected HEK293, flow cytometry
hTF_K149N = molecular target: T3, hTF_K149N (human, UniProt P13726 33-251); test: as above
T3 construct: the entry already holds K149N; on transfected HEK293 cells; not shown: transmembrane and cytoplasmic part of the construct expressed on HEK293 cells
T3 chain: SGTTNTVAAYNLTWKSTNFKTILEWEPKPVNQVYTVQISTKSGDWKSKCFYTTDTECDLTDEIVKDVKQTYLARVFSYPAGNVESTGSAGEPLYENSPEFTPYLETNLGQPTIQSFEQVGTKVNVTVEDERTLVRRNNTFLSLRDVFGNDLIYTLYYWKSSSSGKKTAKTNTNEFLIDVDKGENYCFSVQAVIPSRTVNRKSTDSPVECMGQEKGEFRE

hTF_N171H_T197K [4] = molecular target: T4, hTF_N171H_T197K (human, UniProt P13726 33-251); test: as above
T4 construct: the entry already holds N171H and T197K; on transfected HEK293 cells
T4 chain: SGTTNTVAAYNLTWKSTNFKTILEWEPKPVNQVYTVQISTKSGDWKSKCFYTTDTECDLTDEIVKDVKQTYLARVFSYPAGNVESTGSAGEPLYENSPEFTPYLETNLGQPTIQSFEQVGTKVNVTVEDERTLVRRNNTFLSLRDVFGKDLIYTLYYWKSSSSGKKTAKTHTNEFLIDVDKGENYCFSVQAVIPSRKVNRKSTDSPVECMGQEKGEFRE

mouse TF ECD-His6 [5] = molecular target: T5, mouse TF ECD-His6 (mouse, UniProt P20352 29-251); test: BLI (ForteBio Octet)
T5 construct: made in Expi293 cells; also called TF-His; mTF

human TF ECD-His6 [6] = molecular target: T6, human TF ECD-His6 (human, UniProt P13726 33-251); test: BLI (ForteBio Octet)
T6 construct: made in Expi293 cells; the entry holds the ECD with the C-terminal TG-His6; also called TF-His; hTF

cynomolgus TF ECD-His6 [7] = molecular target: T7, cynomolgus TF ECD-His6 (cynomolgus monkey (Macaca fascicularis)); test: BLI (ForteBio Octet)
T7 construct: made in Expi293 cells; also called TF-His; cTF
T7 chain: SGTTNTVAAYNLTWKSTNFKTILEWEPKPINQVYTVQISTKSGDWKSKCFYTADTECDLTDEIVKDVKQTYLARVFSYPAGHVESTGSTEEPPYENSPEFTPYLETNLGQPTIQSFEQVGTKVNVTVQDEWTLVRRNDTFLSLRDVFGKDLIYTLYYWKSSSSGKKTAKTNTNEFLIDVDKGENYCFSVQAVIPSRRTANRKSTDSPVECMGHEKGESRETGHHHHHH

human TF ECD-His6 [8] = molecular target: T6, human TF ECD-His6; test: SPR (Biacore), antibody on chip, TF-His titrated
cynomolgus TF ECD-His6 [9] = molecular target: T7, cynomolgus TF ECD-His6; test: SPR (Biacore), antibody on chip, TF-His titrated
mouse TF ECD-His6 [10] = molecular target: T5, mouse TF ECD-His6; test: SPR (Biacore), antibody on chip, TF-His titrated
[11] = molecular target: T1, human Tissue Factor (hTF), endogenously …; test: flow cytometry competition on A431 cells, 100 nM unlabelled antibody, competitor 20 nM 43Ea-Alexa488
[12] = molecular target: T2, pig TF ECD-His (pig TF-His) protein; test: Biacore, antibody captured by anti-human IgG on CM5 chip, pig TF-His as analyte
[13] = molecular target: T1, human Tissue Factor (hTF), endogenously …; test: flow cytometry competition on A431 cells, 100 nM unlabelled antibody, competitor 20 nM 25A-Alexa488
hTF_N171H_T197K [14] = molecular target: T8, hTF_N171H_T197K (human, UniProt P13726 33-251); test: live cell staining, flow cytometry
T8 construct: on HEK293 cells
T8 chain: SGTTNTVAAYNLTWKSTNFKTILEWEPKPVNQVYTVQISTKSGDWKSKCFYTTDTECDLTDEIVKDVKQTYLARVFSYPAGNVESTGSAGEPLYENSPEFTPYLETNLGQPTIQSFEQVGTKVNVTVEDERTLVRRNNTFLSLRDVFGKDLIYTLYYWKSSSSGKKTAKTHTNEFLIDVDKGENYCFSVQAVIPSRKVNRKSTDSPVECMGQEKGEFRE

rTF (rat TF) [15] = molecular target: T9, rTF (rat TF) (rat, UniProt P42533 29-252); test: live cell staining, flow cytometry
T9 construct: Expressed on the surface of transfected HEK293 cells

hTF = molecular target: T10, hTF (human, UniProt P13726 33-251); test: live cell staining, flow cytometry
T10 construct: also called human TF; human Tissue Factor

r141-194_h = molecular target: T11, r141-194_h (rat/human chimera, UniProt P42533 29-252); test: live cell staining, flow cytometry
T11 construct: on HEK293 cells

h78-107_r.v2 = molecular target: T12, h78-107_r.v2 (human/rat chimera); test: live cell staining, flow cytometry
T12 construct: on HEK293 cells

rTF (rat TF) [16] = molecular target: T9, rTF (rat TF); test: live cell staining, flow cytometry; remark: listed apart in the source
h1-77_r = molecular target: T13, h1-77_r (human/rat chimera); test: live cell staining, flow cytometry
T13 construct: Human TF with ECD residues 1-77 replaced by the rat segment; on HEK293 cells

h1-107_r = molecular target: T14, h1-107_r (human/rat chimera); test: live cell staining, flow cytometry
T14 construct: on HEK293 cells
T14 chain: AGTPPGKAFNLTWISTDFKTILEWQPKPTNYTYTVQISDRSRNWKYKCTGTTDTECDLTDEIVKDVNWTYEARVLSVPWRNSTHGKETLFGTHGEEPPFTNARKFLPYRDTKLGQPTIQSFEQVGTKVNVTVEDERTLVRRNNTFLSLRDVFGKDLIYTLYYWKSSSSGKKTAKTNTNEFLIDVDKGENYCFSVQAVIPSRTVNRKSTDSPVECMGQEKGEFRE

h159-219_r = molecular target: T15, h159-219_r (human/rat chimera); test: live cell staining, flow cytometry
T15 construct: on HEK293 cells

Row | Binder | % GM-CSF, 2.56 nM antibody, MDA-MB-231 cells + FVIIa [1] | % GM-CSF, 6.4 nM antibody, MDA-MB-231 cells + FVIIa [1] | % GM-CSF, 16 nM antibody, MDA-MB-231 cells + FVIIa [1] | % GM-CSF, 40 nM antibody, MDA-MB-231 cells + FVIIa [1] | % GM-CSF, 100 nM antibody, MDA-MB-231 cells + FVIIa [1] | binding result [3] | binding result (hTF_K149N) | binding result (hTF_N171H_T197K [4]) | Kd (mouse TF ECD-His6 [5]) | Kd (human TF ECD-His6 [6]) | Kd (cynomolgus TF ECD-His6 [7]) | Kd (cynomolgus TF ECD-His6 [9]) | also measured
1 | B1 | 60% | 34% | 26% | 26% | 25% | – | – | – | – | – | – | – | Kd [2]: 3.31 nM
2 | B2 | – | – | – | – | – | no binding (tested: 15 µg/ml (100 nM)) | no binding | no binding | 263 nM | 8.45 nM | 7.65 nM | 5.42 nM | Kd (human TF ECD-His6 [8]): 6.2 nM
3 | B3 | – | – | – | – | – | no binding (tested: 15 µg/ml (100 nM)) | no binding | no binding | 34.2 nM | 3.97 nM | 4.99 nM | 0.78 nM | Kd (mouse TF ECD-His6 [10]): 5.4 nM
4 | B4 | – | – | – | – | – | no binding (tested: 15 µg/ml (100 nM)) | no binding | no binding | 9.16 nM | 35.8 nM | 42.9 nM | 16.4 nM | Kd (mouse TF ECD-His6 [10]): 2.9 nM; Kd (human TF ECD-His6 [8]): 13.3 nM
5 | B5 | 38% | 15% | 7% | 6% | 5% | – | – | – | – | – | – | – | % 43Ea binding [11]: 64%; binding result [12]: no binding; % 25A binding [13]: 70%
6 | B6 | 57% | 24% | 11% | 11% | 12% | – | – | – | – | – | – | – | Kd [2]: 12.9 nM
7 | B7 | 34% | 9% | 7% | 7% | 7% | – | – | – | – | – | – | – | % 43Ea binding [11]: 58%; binding result [12]: no binding; % 25A binding [13]: 75%
8 | B8 | – | – | – | – | – | – | – | – | – | – | – | – | Percent antibody binding to TF construct relative to hTF (hTF_N171H_T197K [14]): 89%; Percent antibody binding to TF construct relative to hTF (rTF (rat TF) [15]): 0%; Percent antibody binding to TF construct relative to hTF (hTF): 100%; Percent antibody binding to TF construct relative to hTF (r141-194_h): 0%; Percent antibody binding to TF construct relative to hTF (h78-107_r.v2): 62%; Percent antibody binding to TF construct relative to hTF (rTF (rat TF) [16]): 0%; Percent antibody binding to TF construct relative to hTF (h1-77_r): 0%; Percent antibody binding to TF construct relative to hTF (h1-107_r): 0%; Percent antibody binding to TF construct relative to hTF (h159-219_r): 142%
